Experimental findings from US20230285394A1, “METHODS OF TREATMENT OF NON-SMALL-CELL LUNG CARCINOMA USING TELISOTUZUMMAB VEDOTIN AND OSIMERTINIB” (AbbVie Biotherapeutics Inc., priority 2022, published 2023) are described below.

Experiment [1] concerns c-Met positive (≥25% 3+ IHC staining) advanced non-squamous NSCLC, EGFR mutant. The experiment is described as follows: Phase 2 study (NCT03539536) of Teliso-V monotherapy, objective response rate. To be noted: Teliso-V monotherapy 1.9 mg/kg. The experiment is classed as in vivo, human.
The test system of experiment [2] is c-Met expressing NSCLC. The experiment can be described thus: First in human phase I trial of Teliso-V monotherapy (NCT02099058), best overall response by c-Met IHC cutoff. The experiment is classed as in vivo.
From the text: (§1) The clinical modeling data was obtained from the Teliso-V monotherapy trial NCT02099058. Abbreviations shown in FIG. 5 and determination of the values in the table are as follow: PPA (positive percent agreement): #oV positive uV positive/Total uV positive; NPA (Negative percent agreement): #oV negative uV negative/Total uV negative; OPA (Overall percent agreement): #oV positive uV positive+#oV negative uV negative/Total number of samples tested; PPV (Positive predictive value): #of oV positive uV positive/total #of oV positive; NPV (Negative predictive value): #of oV negative uV negative/Total oV negative. % BOR represents the percent best overall response.
as §1, with “FIG. 6” for “FIG. 5”
An analytical method comparison between SP44 Ultraview and SP44 OptiView on a large cohort of commercial NSCLC tissues was performed (FIG. 4). […] The overall percent agreement at this cutoff between the two assays was 93%. The first in human phase I clinical trial for Teliso-V monotherapy in NSCLC enrolled patients with an H-score of 150 using the SP44 UltraView assay. Upon re-scoring of the slides, the optimal cutoff utilizing the SP44 Ultraview IHC assay was ≥25% 3+ with a best overall response of 56%. The best overall response for the OptiView IHC assay at the same cutoff, ≥25% 3+, utilizing the phase I data through statistical modeling was 52% (FIG. 5).
The first in human phase I clinical trial for Teliso-V monotherapy in NSCLC enrolled patients with an H-score of 150 using the SP44 UltraView assay. […] The best overall response for the OptiView IHC assay at the same cutoff, ≥50% 3+, utilizing the phase I data through statistical modeling was 63% (FIG. 6).

B1: telisotuzumab vedotin (conjugate, chains of the INN, looked up)
VH: QVQLVQSGAEVKKPGASVKVSCKASGYIFTAYTMHWVRQAPGQGLEWMGWIKPNNGLANYAQKFQGRVTMTRDTSISTAYMELSRLRSDDTAVYYCARSEITTEFDYWGQGTLVTVSS
VL: DIVMTQSPDSLAVSLGERATINCKSSESVDSYANSFLHWYQQKPGQPPKLLIYRASTRESGVPDRFSGSGSGTDFTLTISSLQAEDVAVYYCQQSKEDPLTFGGGTKVEIK
modifications: vc-MMAE payload
notes: ADC of the c-Met targeting antibody ABT-700 conjugated to monomethyl auristatin E (MMAE) through a valine citrulline linker
For the molecule B1, the “ORR (CR + PR)” value was found to be 11.6% in experiment [1] (non-squamous NSCLC EGFR mutant patients, c-Met ≥25% 3+, interim analysis); 0% in experiment [1] (subset of EGFR mutant subjects previously treated with osimertinib); 0% in experiment [1] (subset of EGFR mutant subjects previously treated with osimertinib, listed as Teliso V). For the same molecule, the best overall response in experiment [2] (patients at ≥25% 3+ cutoff, OptiView IHC assay, phase I data through statistical modeling) is listed as 52%; in experiment [2] (patients at ≥25% 3+ cutoff, SP44 Ultraview IHC assay, re-scored slides) it was 56%; in experiment [2] (patients at ≥50% 3+ cutoff, OptiView IHC assay, phase I data through statistical modeling), 63%; in experiment [2] (patients at ≥50% 3+ membrane staining cutoff, SP44 Ultraview IHC assay, re-scored slides), 67%.
